# Data: patent publication US20100260668A1 (published 2010)
# B1: DVD450 (VEGF/DLL4 DVD-Ig) (bispecific antibody, human IgG1)
# VH: EVQLVESGGGLVQPGGSLRLSCAASGFTISDYWIHWVRQAPGKGLEWVAGITPAGGYTYYADSVKGRFTISADTSKNTAYLQMNSLRAEDTAVYYCARFVFFLPYAMDYWGQGTLVTVSSASTKGPSVFPLAPQVQLVQSGAEVKKPGASVKISCKASGYSFTAYYIHWVKQAPGQGLEWIGYISSYNGATNYNQKFKGRVTFTTDTSTSTAYMELRSLRSDDTAVYYCARDYDYDVGMDYWGQGTLVTVSS
# VL: DIQMTQSPSSLSASVGDRVTITCRASQDVSTAVAWYQQKPGKAPKLLIYSASFLYSGVPSRFSGSGSGTDFTLTISSLQPEDFATYYCQQSYTTPPTFGQGTKVEIKRTVAAPSVFIFPPDIVMTQSPDSLAVSLGERATISCRASESVDNYGISFMKWFQQKPGQPPKLLIYAASNQGSGVPDRFSGSGSGTDFTLTISSLQAEDVAVYYCQQSKEVPWTFGGGTKVEIKR
# notes: HC linker long, LC linker long; also called DVD450H; DVD450L
# B2: DVD496 (VEGF/DLL4 DVD-Ig) (bispecific antibody, human IgG1)
# VH: EVQLVESGGGLVQPGGSLRLSCAASGFTISDYWIHWVRQAPGKGLEWVAGITPAGGYTYYADSVKGRFTISADTSKNTAYLQMNSLRAEDTAVYYCARFVFFLPYAMDYWGQGTLVTVSSASTKGPSVFPLAPEVQLQQSGPELVKPGASVKMSCKASGYTFTSYVINWVKQKPGQGLEWIGLINPYNDGTKYNEKFKVKATLTSDKSSSTAYMELSSLTSEDSAVYYCASYYYGSRYYFDYWGQGTTLTVSS
# VL: DIQMTQSPSSLSASVGDRVTITCRASQDVSTAVAWYQQKPGKAPKLLIYSASFLYSGVPSRFSGSGSGTDFTLTISSLQPEDFATYYCQQSYTTPPTFGQGTKVEIKRTVAAPSVFIFPPDIQMTQSSSYLSVSLGGRVTITCKASDHINNWLAWYQQKPGNAPRLLISGATSLETGVPSRFSGSGSGKDYTLSITSLQTEDVATYYCQQYWSIPLTFGAGTKLELKR
# notes: HC linker long, LC linker long; also called DVD496H; DVD496L
# B3: DVD472 (VEGF/DLL4 DVD-Ig) (bispecific antibody, human IgG1)
# VH: EVQLVESGGGLVQPGGSLRLSCAASGFTISDYWIHWVRQAPGKGLEWVAGITPAGGYTYYADSVKGRFTISADTSKNTAYLQMNSLRAEDTAVYYCARFVFFLPYAMDYWGQGTLVTVSSASTKGPSVFPLAPEVQLVESGGGLVQPGGSLRLSCAASGFTFTDNWISWVRQAPGKGLEWVGYISPNSGFTYYADSVKGRFTISADTSKNTAYLQMNSLRAEDTAVYYCARDNFGGYFDYWGQGTLVTVSS
# VL: DIQMTQSPSSLSASVGDRVTITCRASQDVSTAVAWYQQKPGKAPKLLIYSASFLYSGVPSRFSGSGSGTDFTLTISSLQPEDFATYYCQQSYTTPPTFGQGTKVEIKRTVAAPSVFIFPPDIQMTQSPSSLSASVGDRVTITCRASQDVSTAVAWYQQKPGKAPKLLIYSASFLYSGVPSRFSGSGSGTDFTLTISSLQPEDFATTYYCQQSYTGTVTFGQGTKVEIKR
# notes: HC linker long, LC linker long; also called DVD472H; DVD472L
# B4: DVD520 (VEGF/DLL4 DVD-Ig) (bispecific antibody, human IgG1)
# VH: EVQLVESGGGLVQPGGSLRLSCAASGFTISDYWIHWVRQAPGKGLEWVAGITPAGGYTYYADSVKGRFTISADTSKNTAYLQMNSLRAEDTAVYYCARFVFFLPYAMDYWGQGTLVTVSSASTKGPSVFPLAPEVQLQQSGPELEKPGASVKISCKASGYSFTGYNMNWVKQSNGKSLEWIGNIDPYFGGTNYNQKFKGKATLTVDKSSSTAYMQLKSLTSEDSAVYYCARNYDYDGGCFDYWGQGTTLTVSS
# VL: DIQMTQSPSSLSASVGDRVTITCRASQDVSTAVAWYQQKPGKAPKLLIYSASFLYSGVPSRFSGSGSGTDFTLTISSLQPEDFATYYCQQSYTTPPTFGQGTKVEIKRTVAAPSVFIFPPQAVVTQESALTTSPGETVTLTCRSSTGAVTTSNYANWVQEKPDHLFTGLIGGTNNRAPGVPARFSGSLIGDKAALTITGAQTEDEAIYFCALWYSNHWVFGGGTKLTVLG
# notes: HC linker long, LC linker long; also called DVD520H; DVD520L
# B5: DVD501 (DLL4/VEGF DVD-Ig) (bispecific antibody, human IgG1)
# VH: EVQLQQSGPELVKPGASVKMSCKASGYTFTSYVINWVKQKPGQGLEWIGLINPYNDGTKYNEKFKVKATLTSDKSSSTAYMELSSLTSEDSAVYYCASYYYGSRYYFDYWGQGTTLTVSSASTKGPSVFPLAPEVQLVESGGGLVQPGGSLRLSCAASGFTISDYWIHWVRQAPGKGLEWVAGITPAGGYTYYADSVKGRFTISADTSKNTAYLQMNSLRAEDTAVYYCARFVFFLPYAMDYWGQGTLVTVSS
# VL: DIQMTQSSSYLSVSLGGRVTITCKASDHINNWLAWYQQKPGNAPRLLISGATSLETGVPSRFSGSGSGKDYTLSITSLQTEDVATYYCQQYWSIPLTFGAGTKLELKRTVAAPDIQMTQSPSSLSASVGDRVTITCRASQDVSTAVAWYQQKPGKAPKLLIYSASFLYSGVPSRFSGSGSGTDFTLTISSLQPEDFATYYCQQSYTTPPTFGQGTKVEIKR
# notes: HC linker long, LC linker short; also called DVD501H; DVD501L
# B6: DVD477 (DLL4/VEGF DVD-Ig) (bispecific antibody, human IgG1)
# VH: EVQLVESGGGLVQPGGSLRLSCAASGFTFTDNWISWVRQAPGKGLEWVGYISPNSGFTYYADSVKGRFTISADTSKNTAYLQMNSLRAEDTAVYYCARDNFGGYFDYWGQGTLVTVSSASTKGPSVFPLAPEVQLVESGGGLVQPGGSLRLSCAASGFTISDYWIHWVRQAPGKGLEWVAGITPAGGYTYYADSVKGRFTISADTSKNTAYLQMNSLRAEDTAVYYCARFVFFLPYAMDYWGQGTLVTVSS
# VL: DIQMTQSPSSLSASVGDRVTITCRASQDVSTAVAWYQQKPGKAPKLLIYSASFLYSGVPSRFSGSGSGTDFTLTISSLQPEDFATTYYCQQSYTGTVTFGQGTKVEIKRTVAAPDIQMTQSPSSLSASVGDRVTITCRASQDVSTAVAWYQQKPGKAPKLLIYSASFLYSGVPSRFSGSGSGTDFTLTISSLQPEDFATYYCQQSYTTPPTFGQGTKVEIKR
# notes: HC linker long, LC linker short; also called DVD477H; DVD477L
# B7: DVD455 (DLL4/VEGF DVD-Ig) (bispecific antibody, human IgG1)
# VH: QVQLVQSGAEVKKPGASVKISCKASGYSFTAYYIHWVKQAPGQGLEWIGYISSYNGATNYNQKFKGRVTFTTDTSTSTAYMELRSLRSDDTAVYYCARDYDYDVGMDYWGQGTLVTVSSASTKGPSVFPLAPEVQLVESGGGLVQPGGSLRLSCAASGFTISDYWIHWVRQAPGKGLEWVAGITPAGGYTYYADSVKGRFTISADTSKNTAYLQMNSLRAEDTAVYYCARFVFFLPYAMDYWGQGTLVTVSS
# VL: DIVMTQSPDSLAVSLGERATISCRASESVDNYGISFMKWFQQKPGQPPKLLIYAASNQGSGVPDRFSGSGSGTDFTLTISSLQAEDVAVYYCQQSKEVPWTFGGGTKVEIKRTVAAPDIQMTQSPSSLSASVGDRVTITCRASQDVSTAVAWYQQKPGKAPKLLIYSASFLYSGVPSRFSGSGSGTDFTLTISSLQPEDFATYYCQQSYTTPPTFGQGTKVEIKR
# notes: HC linker long, LC linker short; also called DVD455H; DVD455L
# B8: DVD525 (DLL4/VEGF DVD-Ig) (bispecific antibody, human IgG1)
# VH: EVQLQQSGPELEKPGASVKISCKASGYSFTGYNMNWVKQSNGKSLEWIGNIDPYFGGTNYNQKFKGKATLTVDKSSSTAYMQLKSLTSEDSAVYYCARNYDYDGGCFDYWGQGTTLTVSSASTKGPSVFPLAPEVQLVESGGGLVQPGGSLRLSCAASGFTISDYWIHWVRQAPGKGLEWVAGITPAGGYTYYADSVKGRFTISADTSKNTAYLQMNSLRAEDTAVYYCARFVFFLPYAMDYWGQGTLVTVSS
# VL: QAVVTQESALTTSPGETVTLTCRSSTGAVTTSNYANWVQEKPDHLFTGLIGGTNNRAPGVPARFSGSLIGDKAALTITGAQTEDEAIYFCALWYSNHWVFGGGTKLTVLGQPKAAPDIQMTQSPSSLSASVGDRVTITCRASQDVSTAVAWYQQKPGKAPKLLIYSASFLYSGVPSRFSGSGSGTDFTLTISSLQPEDFATYYCQQSYTTPPTFGQGTKVEIKR
# notes: HC linker long, LC linker short; also called DVD525H; DVD525L
# B9: DVD495 (DLL4/VEGF DVD-Ig) (bispecific antibody, human IgG1)
# VH: B5 VH
# VL: DIQMTQSSSYLSVSLGGRVTITCKASDHINNWLAWYQQKPGNAPRLLISGATSLETGVPSRFSGSGSGKDYTLSITSLQTEDVATYYCQQYWSIPLTFGAGTKLELKRTVAAPSVFIFPPDIQMTQSPSSLSASVGDRVTITCRASQDVSTAVAWYQQKPGKAPKLLIYSASFLYSGVPSRFSGSGSGTDFTLTISSLQPEDFATYYCQQSYTTPPTFGQGTKVEIKR
# notes: HC linker long, LC linker long; also called DVD495H; DVD495L
# B10: DVD449 (DLL4/VEGF DVD-Ig) (bispecific antibody, human IgG1)
# VH: B7 VH
# VL: DIVMTQSPDSLAVSLGERATISCRASESVDNYGISFMKWFQQKPGQPPKLLIYAASNQGSGVPDRFSGSGSGTDFTLTISSLQAEDVAVYYCQQSKEVPWTFGGGTKVEIKRTVAAPSVFIFPPDIQMTQSPSSLSASVGDRVTITCRASQDVSTAVAWYQQKPGKAPKLLIYSASFLYSGVPSRFSGSGSGTDFTLTISSLQPEDFATYYCQQSYTTPPTFGQGTKVEIKR
# notes: HC linker long, LC linker long; also called DVD449H; DVD449L
# B11: DVD519 (DLL4/VEGF DVD-Ig) (bispecific antibody, human IgG1)
# VH: B8 VH
# VL: QAVVTQESALTTSPGETVTLTCRSSTGAVTTSNYANWVQEKPDHLFTGLIGGTNNRAPGVPARFSGSLIGDKAALTITGAQTEDEAIYFCALWYSNHWVFGGGTKLTVLGQPKAAPSVTLFPPDIQMTQSPSSLSASVGDRVTITCRASQDVSTAVAWYQQKPGKAPKLLIYSASFLYSGVPSRFSGSGSGTDFTLTISSLQPEDFATYYCQQSYTTPPTFGQGTKVEIKR
# notes: HC linker long, LC linker long; also called DVD519H; DVD519L
# Target: T1, DLL4 (DLL4 ECD/His tag, R&D Systems 1506-D4-050) (UniProt Q9NR61 27-529)
# T1 construct: extracellular domain; not shown: His tag
# Test: Direct bind ELISA on DLL4; DLL4 domain C-term., HC long, LC long
# Experimental: (§1) Enzyme Linked Immunosorbent Assays to screen for antibodies that bind a desired target antigen were performed as follows. […] Plates were washed four times with PBS containing 0.02% Tween 20. Plates were blocked by the addition of 300 μL/well blocking solution (non-fat dry milk powder, various retail suppliers, diluted to 2% in PBS) for ½ hour at room temperature. Plates were washed four times after blocking with PBS containing 0.02% Tween 20.
# (§2) Alternatively, one hundred microliters per well of 10 μg/ml of Histidine (His) tagged desired target antigen (R&D Systems, Minneapolis, Minn.) was added to ELISA plates coated with monoclonal mouse anti-polyHistidine antibody as described above and incubated for 1 hour at room temperature. Wells were washed four times with PBS containing 0.02% Tween 20.
# (§3) One hundred microliters of antibody or DVD-Ig preparations diluted in blocking solution as described above was added to the desired target antigen plate or desired target antigen/FC fusion plate or the anti-polyHistidine antibody/His tagged desired target antigen plate prepared as described above and incubated for 1 hour at room temperature. Wells are washed four times with PBS containing 0.02% Tween 20.
row,Binder,EC50 [nM]
1,B1,1.99
2,B2,5.59
3,B3,2.78
4,B4,17.3

# Target: T1, DLL4 (DLL4 ECD/His tag, R&D Systems …)
# Test: Direct bind ELISA on DLL4; DLL4 domain N-term., HC long, LC short
# Experimental: as §1, §2, §3
row,EC50 [nM],Binder
1,0.18,B5
2,0.69,B6
3,0.24,B7
4,1,B8

# Target: T1, DLL4 (DLL4 ECD/His tag, R&D Systems …)
# Test: Direct bind ELISA on DLL4; DLL4 domain N-term., HC long, LC long
# Experimental: as §1, §2, §3
row,Binder,EC50 [nM]
1,B9,0.33
2,B10,0.36
3,B11,1.53
